Measurements taken from paper PMC2927720.

B1: CAGGTAG probe (dsDNA)
DNA 1: CTATTCAGGTAGACACTGTA
DNA 2: TACAGTGTCTACCTGAATAG
B2: CAGGCAG probe (dsDNA)
DNA 1: CTATTCAGGCAGACACTGTA
DNA 2: TACAGTGTCTGCCTGAATAG

Columns and labels:
[1] = biological target: rZld (Zelda, full-length recombinant) (UniProt Q9VWC6 1-1596); test: EMSA
[2] = biological target: rGrh (Grainyhead, full-length recombinant) (UniProt P13002-2 1-1032); test: EMSA

Sequence of rZld (Zelda, full-length recombinant) (Q9VWC6 whole entry): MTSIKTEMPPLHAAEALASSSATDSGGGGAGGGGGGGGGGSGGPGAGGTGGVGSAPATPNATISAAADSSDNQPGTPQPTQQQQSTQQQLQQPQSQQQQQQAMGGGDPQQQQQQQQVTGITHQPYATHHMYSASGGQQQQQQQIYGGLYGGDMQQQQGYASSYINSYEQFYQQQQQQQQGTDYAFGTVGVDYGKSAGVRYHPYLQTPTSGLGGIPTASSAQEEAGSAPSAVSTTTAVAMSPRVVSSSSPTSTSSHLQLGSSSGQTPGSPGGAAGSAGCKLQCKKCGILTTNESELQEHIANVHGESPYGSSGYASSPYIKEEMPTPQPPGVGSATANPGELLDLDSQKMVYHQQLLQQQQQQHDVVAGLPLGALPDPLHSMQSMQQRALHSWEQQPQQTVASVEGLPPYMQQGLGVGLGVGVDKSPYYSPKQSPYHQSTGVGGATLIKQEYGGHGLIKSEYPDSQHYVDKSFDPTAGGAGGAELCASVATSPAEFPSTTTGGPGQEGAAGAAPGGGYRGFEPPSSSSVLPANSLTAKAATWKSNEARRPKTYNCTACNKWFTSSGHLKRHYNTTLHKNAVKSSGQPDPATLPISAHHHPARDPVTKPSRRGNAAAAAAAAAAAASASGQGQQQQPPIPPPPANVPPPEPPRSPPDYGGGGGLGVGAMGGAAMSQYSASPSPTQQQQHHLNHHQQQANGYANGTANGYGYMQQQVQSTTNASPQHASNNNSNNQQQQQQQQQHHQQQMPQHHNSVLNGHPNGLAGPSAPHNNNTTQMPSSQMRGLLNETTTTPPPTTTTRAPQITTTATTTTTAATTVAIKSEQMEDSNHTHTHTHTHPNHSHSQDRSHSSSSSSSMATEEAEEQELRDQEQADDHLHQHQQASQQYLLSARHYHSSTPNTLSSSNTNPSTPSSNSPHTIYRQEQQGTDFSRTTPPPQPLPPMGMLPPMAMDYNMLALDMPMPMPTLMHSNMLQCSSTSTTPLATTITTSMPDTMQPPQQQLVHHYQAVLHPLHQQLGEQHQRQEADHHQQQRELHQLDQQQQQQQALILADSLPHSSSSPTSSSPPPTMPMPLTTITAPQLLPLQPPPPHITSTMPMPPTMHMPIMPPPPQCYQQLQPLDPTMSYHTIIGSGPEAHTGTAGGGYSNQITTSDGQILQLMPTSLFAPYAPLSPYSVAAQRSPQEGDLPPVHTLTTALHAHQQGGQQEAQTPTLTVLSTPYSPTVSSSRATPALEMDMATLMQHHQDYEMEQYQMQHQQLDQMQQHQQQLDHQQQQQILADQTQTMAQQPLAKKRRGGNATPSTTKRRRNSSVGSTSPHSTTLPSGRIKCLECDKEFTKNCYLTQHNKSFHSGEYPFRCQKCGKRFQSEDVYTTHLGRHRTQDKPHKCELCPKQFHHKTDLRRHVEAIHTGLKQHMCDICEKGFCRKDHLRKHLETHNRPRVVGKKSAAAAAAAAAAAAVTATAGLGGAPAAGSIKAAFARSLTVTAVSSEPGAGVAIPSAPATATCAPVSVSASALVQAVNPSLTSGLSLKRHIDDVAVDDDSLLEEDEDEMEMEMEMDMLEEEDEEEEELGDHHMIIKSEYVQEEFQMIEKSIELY

Binder | binding result [1] | binding result [2]
B1 | binds | binds
B2 |  | binds
